Data as given in patent US20220332804A1 (CSL INNOVATION, published 2022).
Where a chain is given by its changes, count along the chain named.

Assays:
Test in all cases: SPR; KD relative to WT C2;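 also: biacore SPR at 37 °C, anti-C2 mAbs captured on an anti-human IgG chip, alanine or serine C2 surface mutants tested, KD from 1:1 fit compared with wild-type C2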
[1] = molecular target: T1, human C2 K244A (human, UniProt P06681 21-752)
T1 sequence: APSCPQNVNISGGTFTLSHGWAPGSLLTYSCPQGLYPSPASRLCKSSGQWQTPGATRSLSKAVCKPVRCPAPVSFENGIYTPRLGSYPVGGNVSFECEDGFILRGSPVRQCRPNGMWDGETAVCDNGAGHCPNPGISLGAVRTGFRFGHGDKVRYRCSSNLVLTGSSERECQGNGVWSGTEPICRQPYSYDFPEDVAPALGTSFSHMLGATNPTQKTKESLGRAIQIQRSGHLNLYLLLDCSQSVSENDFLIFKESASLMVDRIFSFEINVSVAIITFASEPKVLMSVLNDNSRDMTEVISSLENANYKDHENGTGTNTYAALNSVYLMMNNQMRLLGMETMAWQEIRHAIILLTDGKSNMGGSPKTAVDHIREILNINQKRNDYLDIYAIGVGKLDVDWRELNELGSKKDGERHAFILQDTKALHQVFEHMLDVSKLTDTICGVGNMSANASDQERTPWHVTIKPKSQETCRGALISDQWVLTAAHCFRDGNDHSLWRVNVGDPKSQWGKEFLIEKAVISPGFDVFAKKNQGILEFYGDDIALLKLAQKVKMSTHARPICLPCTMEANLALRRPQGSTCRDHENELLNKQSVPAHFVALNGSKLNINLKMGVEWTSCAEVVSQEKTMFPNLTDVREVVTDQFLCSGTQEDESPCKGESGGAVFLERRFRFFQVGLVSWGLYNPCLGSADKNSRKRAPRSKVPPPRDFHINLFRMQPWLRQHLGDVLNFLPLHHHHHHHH
Method: (§1) Surface plasmon resonance (SPR, Biacore) was used for all binding affinity analyses. In brief, goat anti-human IgG was directly immobilised onto the carboxymethyl dextran surface of CM5 sensorchips to approximately 12,000 RU using standard NHS/EDC chemistry at pH 5. The immobilised antibody surface was pre-conditioned with ten injections of polyclonal human IgG (Privigen 60 s) prepared at 1 μg/mL. Ligands (anti-C2 mAbs) were captured at the beginning of each cycle as described below. An adjacent spot or flow cell in which only Polyclonal IgG was capture was used as a reference surface. The goat anti-human IgG Fc antibody surface was regenerate in 100 mM H3PO4, injected for 45 seconds at the end of each cycle. Experiments were performed at 37° C. and the flow rate of each experiment was kept constant at 30 μL/min.
(§2) Sensogram data was double-referenced against a reference anti-IgG surface (i.e. minus anti-C2 mAb) and blank buffer injections obtained within each experiment. The binding data was fit to 1:1 (kinetic or steady-state) model using local Rmax and null refraction index (RI=0) when appropriate. Buffers and solutions were filtered (0.22 μm) prior to use.
(§3) The C2 mutants were designed to test the importance of surface exposed residues for antibody binding. Residues located at either the N-terminal VWA domain or C-terminal protease domain of C were replaced by either alanine or serine and tested for binding against anti-C2 antibodies.

[2] = molecular target: T2, human C2 A436S (human, UniProt P06681 21-752)
T2 sequence: T1 sequence with A224K, A416S
Method: as §1, §2, §3

[3] = molecular target: T3, human C2 A444S (human, UniProt P06681 21-752)
T3 sequence: T1 sequence with A224K, A424S
Method: as §1, §2, §3

[4] = molecular target: T4, human C2 L453A (human, UniProt P06681 21-752)
T4 sequence: T1 sequence with A224K, L433A
Method: as §1, §2, §3

Fold diff [1]: 3 fold
Fold diff [2]: 1 fold
Fold diff [3]: 1 fold
Fold diff [4]: 45 fold
B1: RF16-214 (antibody, V domains shown)
VH: EVQLLESGGGLVQPGGSLRLSCAASGFTFSWYQMMWVRQAPGKGLEWVSRIYPSGGGTAYADSVKGRFTISRDNSKNTLYLQMNSLRAEDTAVYYCARDAGYGDNWGQGTLVTVSS
VL: QSALTQPPSVSVSPGQTASITCSGDKLGEKYASWYQQKAGQSPVMVIYQDRKRPSGIPERFSGSNSGNTATLTISGTQAMDEADYYCQAWDTRAVVFGGGTKLTVLG
